These results are taken from paper PMC5799255, “Histone H5 is a potent Antimicrobial Agent and a template for novel Antimicrobial Peptides” (Scientific Reports, 2018).

Read-outs that look alike come from different tables or passages of the source.

In experiment [1] the test system is Listeria monocytogenes (ATCC 19112). As to conditions: for MIC: broth microdilution. How it is done:
(§1) Antimicrobial activity of histone H5 against a variety of Gram-positive and Gram-negative planktonic bacteria was evaluated using a broth microdilution assay.
(§2) The antimicrobial activity of these peptides against Gram-positive and Gram-negative planktonic bacteria was evaluated using broth microdilution assays.
(§3) The bacterial strains tested in this study were Gram-positive bacteria (Bacillus cereus (ATCC 11778), methicillin-sensitive Staphylococcus aureus (ATCC 6538), methicillin-resistant Staphylococcus aureus (ATCC 29247), Listeria monocytogenes (ATCC 19112), Enterococcus faecalis (clinical isolate) and vancomycin-resistant Enterococcus (ATCC 51299)) and Gram-negative bacteria Escherichia coli K12 (ATCC 29425), Escherichia coli (O157:H7), Pseudomonas aeruginosa (ATCC 15442) and Salmonella typhimurium (ATCC 1535)). Bacterial colonies from glycerol stocks were plated on LB agar plates (BHI agar plates for L. monocytogenes) and incubated overnight at 37 °C. Single colonies from these plates were grown in 3 mL of LB broth (BHI broth for L. monocytogenes) overnight at 37 °C and shaken at 250 rpm. […] The bacterial suspension was pelleted at 3,000 × g, 4 °C for 10 minutes and washed with PBS (twice), and then adjusted to 10^5–10^6 CFUs/mL in PBS.
(§4) Supplementary Information
(§5) Broth microdilution assay
(§6) The protocol for this step of the project was based on established methods22. Histone H5 or the peptides were dissolved in sterile water, pH 7.4, serially two-fold diluted and aliquoted in a 1:1 (v/v) ratio with bacteria. Kanamycin or ampicillin served as a positive control for inhibition, and sterile water (pH 7.4) as a negative control for inhibition. The tubes were then incubated for 3 hours at 37°C an d shaken at 200 rpm. Next, 100 µL of each tube and 100µL of LB broth (BHI broth for L. monocytogenes) was plated in wells of a 96-well microplate. The microplate was incubated in the EON microplate reader overnight at 206 oscillations/min and at 37°C. During this period, the EON microplate spectrophotometer and Gen5 data analysis software (BioTek, Winooski, VT, USA) were used to monitor the growth of bacteria by measuring the optical density at 600 nm every 30 minutes for 18 hours. The lowest protein concentration without visible bacterial growth was designated as the minimum inhibitory concentration (MIC). Bacteria (10 µL) from the wells at MIC, MIC x 2 and MIC x 3 concentrations of H5 were plated on LB agar (BHI agar for L. monocytogenes) and incubated at 37°C for 18 hours. The lowest concentration of histone H5 without a single colony was designated as the minimum bactericidal concentration (MBC).
For orientation: Broth dilution looks for growth in wells or tubes with falling amounts of substance.

Experiment [2] has as its system Pseudomonas aeruginosa (ATCC 15442). How it is done:
as §1, §2, §3, §4, §5, §6

B1: histone H5: erythrocyte-specific linker histone purified from chicken erythrocytes, 190 amino acids (protein, UniProt P02259 2-190, looked up)
Histone H5: TESLVLSPAPAKPKRVKASRRSASHPTYSEMIAAAIRAEKSRGGSSRQSIQKYIKSHYKVGHNADLQIKLSIRRLLAAGVLKQTKGVGASGSFRLAKSDKAKRSPGKKKKAVRRSTSPKKAARPRKARSPAKKPKATARKARKKSRASPKKAKKPKTVKAKSRKASKAKKVKRSKPRAKSGARKSPKKK
Broadly, the MIC is the smallest concentration in the dilution series that meets the test's criterion for growth inhibition. Higher therefore signals weaker potency. One may read the MBC as the lowest tested concentration that kills the bacteria rather than only halting them. Higher therefore signals less potent killing. In the case of B1, the MIC in experiment [1] (MIC given in molar units) amounted to 0.2 ± 0 µM; in experiment [1] (3 h at 37 °C, then OD600 growth 18 h in BHI broth, mean ± SD, n = 3), 4 ± 0 µg/mL; in experiment [2] (broth microdilution, MIC given in molar units), 0.1 ± 0.1 µM; in experiment [2] (broth microdilution, 3 h at 37 °C, then OD600 growth 18 h in LB broth, mean ± SD, n = 3), 2.9 ± 1 µg/mL; in experiment [2] (value in the figure, representative of three independent trials, each in triplicate), 4 µg/mL. Besides, the MBC in experiment [1] (plated on BHI agar, 37 °C 18 h, lowest concentration without a single colony, mean ± SD, n = 3) was determined as 4.4 ± 0.8 µg/mL; in experiment [2] (plated on LB agar, 37 °C 18 h, lowest concentration without a single colony, mean ± SD, n = 3), 2.9 ± 1 µg/mL.
